According to IntAct's records for PubMed 19955409:

target: rdx, Q9VFP2-2
Sequence (Q9VFP2 456-829): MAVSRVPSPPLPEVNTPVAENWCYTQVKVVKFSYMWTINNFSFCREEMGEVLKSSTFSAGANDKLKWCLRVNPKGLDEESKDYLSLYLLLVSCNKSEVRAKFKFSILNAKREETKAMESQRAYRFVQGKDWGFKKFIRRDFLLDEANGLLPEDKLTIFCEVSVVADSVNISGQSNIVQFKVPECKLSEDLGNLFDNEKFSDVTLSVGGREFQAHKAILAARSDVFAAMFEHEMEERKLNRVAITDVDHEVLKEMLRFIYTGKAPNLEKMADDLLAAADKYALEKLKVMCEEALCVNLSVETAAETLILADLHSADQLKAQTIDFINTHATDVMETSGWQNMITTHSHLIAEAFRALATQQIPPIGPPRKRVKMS

| Substance | effect of a mutation on the interaction |
| --- | --- |
| Transcriptional activator cubitus interruptus (Drosophila melanogaster (Fruit fly)), P19538 T374A | disrupting interaction strength |
| Transcriptional activator cubitus interruptus (Drosophila melanogaster (Fruit fly)), P19538 S373D | disrupting interaction strength |
| Transcriptional activator cubitus interruptus (Drosophila melanogaster (Fruit fly)), P19538 S373A | disrupting interaction strength |
| Transcriptional activator cubitus interruptus (Drosophila melanogaster (Fruit fly)), P19538 S375A | disrupting interaction strength |
| Transcriptional activator cubitus interruptus (Drosophila melanogaster (Fruit fly)), P19538 S375D | disrupting interaction strength |
| Transcriptional activator cubitus interruptus (Drosophila melanogaster (Fruit fly)), P19538 E369A | disrupting interaction strength |
| Transcriptional activator cubitus interruptus (Drosophila melanogaster (Fruit fly)), P19538 S372A | disrupting interaction strength |
| Transcriptional activator cubitus interruptus (Drosophila melanogaster (Fruit fly)), P19538 T374D | disrupting interaction strength |
